Earlier results, collected in publication PMC10968392.

Molecular target: SARS-CoV-2 spike protein (cited Kd) (SARS-CoV-2) (UniProt P0DTC2)
Test: not stated here (previous study)
Conditions: PBSMCT: DPBS, 1 mM MgCl2, 1 mM CaCl2, 0.025% Tween-20; 25 °C, 1 h; pH not stated

| Sequence | Kd [nM] |
| --- | --- |
| GAACATTGGCGTCCGTGAGTGAGACCATAGTCCAGCGAACTAAACCTACCCTAAAGGGCAAGGAAGACGGGCACTTCCTCAAACGCCCAA [SpS1-C1 aptamer] | 1.47 |
| GAACATTGGCGTCCGTGAGCAGCTCGTGGTTGTTTGCTTGTATACTTTTGTGGTTTATCTTGTTTCTGATCACTTCCTCAAACGCCCAA [SpS1-C4 aptamer] | 1.81 |
